Measured values taken from patent US20230167164A1 (IMMUNOWAKE, published 2023).
Substitutions are numbered along the chain they refer to. Names and notes keep the numbering of the source.

B1: IL-2(R38D/K43E/E61R/Q126T)/IL-12(E59A/F60A)/PD-L1(mut2)-Fc (Fc fusion)
chain 1: FTVTVPKDLYVVEYGSNMTIECKFPVEKQLDLAALQVYWMMEDKNIIQFVHGEEDLKVQHSSYRQRARLLKDQLSLGNAALQITDVKLQDAGVYTCLIAYKGADYKRITVKVNAPYNKINQRILVVDPVTSEHELTCQAEGYPKAEVIWTSSDHQVLSGKTTTTNSKREEKLFNVTSTLRINTTTNEIFYCTFRRLDPEENHTAELVIPELPLAHPPNERGGGGSGGGIWELKKDVYVVELDWYPDAPGEMVVLTCDTPEEDGITWTLDQSSEVLGSGKTLTIQVKAAGDAGQYTCHKGGEVLSHSLLLLHKKEDGIWSTDILKDQKEPKNKTFLRCEAKNYSGRFTCWWLTTISTDLTFSVKSSRGSSDPQGVTCGAATLSAERVRGDNKEYEYSVECQEDSACPAAEESLPIEVMVDAVHKLKYENYTSSFFIRDIIKPDPPKNLQLKPLKNSRQVEVSWEYPDTWSTPHSYFSLTFCVQVQGKSKREKKDRVFTDKTSATVICRKNASISVRAQDRYYSSSWSEWASVPCSGGGGSGGGSGGGGSRNLPVATPDPGMFPCLHHSQNLLRAVSNMLQKARQTLEFYPCTSEEIDHEDITKDKTSTVEACLPLELTKNESCLNSRETSFITNGSCLASRKTSFMMALCLSSIYEDLKMYQVEFKTMNAKLLMDPKRQIFLDQNMLAVIDELMQALNFNSETVPQKSSLEEPDFYKTKIKLCILLHAFRIRAVTIDRVMSYLNASGGGGSGGGDKTHTCPPCPAPEDEGGPSVFLFPPKPKDTLMISRTPEVTCVVVDVSHEDPEVKFNWYVDGVEVHNAKTKPREEQYNSTYRVVSVLTVLHQDWLNGKEYKCKVSNKALPAPIEKTISKAKGQPREPQVYVYPPSREEMTKNQVSLTCLVKGFYPSDIAVEWESNGQPENNYKTTPPVLDEDGSFALVSKLTVDKSRWQQGNVFSCSVMHEALHNHYTQKSLSLSPGK
chain 2: FTVTVPKDLYVVEYGSNMTIECKFPVEKQLDLAALQVYWMMEDKNIIQFVHGEEDLKVQHSSYRQRARLLKDQLSLGNAALQITDVKLQDAGVYTCLIAYKGADYKRITVKVNAPYNKINQRILVVDPVTSEHELTCQAEGYPKAEVIWTSSDHQVLSGKTTTTNSKREEKLFNVTSTLRINTTTNEIFYCTFRRLDPEENHTAELVIPELPLAHPPNERGGGSGAPTSSSTKKTQLQLEHLLLDLQMILNGINNYKNPKLTDMLTFEFYMPKKATELKHLQCLERELKPLEEVLNLAQSKNFHLRPRDLISNINVIVLELKGSETTFMCEYADETATIVEFLNRWITFCTSIISTLTGGGGSGGGDKTHTCPPCPAPEKKGGPSVFLFPPKPKDTLMISRTPEVTCVVVDVSHEDPEVKFNWYVDGVEVHNAKTKPREEQYNSTYRVVSVLTVLHQDWLNGKEYKCKVSNKALPAPIEKTISKAKGQPREPQVYVLPPSREEMTKNQVSLLCLVKGFYPSDIAVEWESNGQPENRYMTWPPVLDSDGSFFLYSKLTVDKSRWQQGNVFSCSVMHEALHNHYTQKSLSLSPGK
B2: IL-2(R38D/K43E/E61R/Q126T)/PD-L1(mut2)-Fc/IL-12(E59A/F60A) (Fc fusion)
chain 1: FTVTVPKDLYVVEYGSNMTIECKFPVEKQLDLAALQVYWMMEDKNIIQFVHGEEDLKVQHSSYRQRARLLKDQLSLGNAALQITDVKLQDAGVYTCLIAYKGADYKRITVKVNAPYNKINQRILVVDPVTSEHELTCQAEGYPKAEVIWTSSDHQVLSGKTTTTNSKREEKLFNVTSTLRINTTTNEIFYCTFRRLDPEENHTAELVIPELPLAHPPNERGGGGSGGGDKTHTCPPCPAPEDEGGPSVFLFPPKPKDTLMISRTPEVTCVVVDVSHEDPEVKFNWYVDGVEVHNAKTKPREEQYNSTYRVVSVLTVLHQDWLNGKEYKCKVSNKALPAPIEKTISKAKGQPREPQVYVYPPSREEMTKNQVSLTCLVKGFYPSDIAVEWESNGQPENNYKTTPPVLDEDGSFALVSKLTVDKSRWQQGNVFSCSVMHEALHNHYTQKSLSLSPGKGGGGSGGGIWELKKDVYVVELDWYPDAPGEMVVLTCDTPEEDGITWTLDQSSEVLGSGKTLTIQVKAAGDAGQYTCHKGGEVLSHSLLLLHKKEDGIWSTDILKDQKEPKNKTFLRCEAKNYSGRFTCWWLTTISTDLTFSVKSSRGSSDPQGVTCGAATLSAERVRGDNKEYEYSVECQEDSACPAAEESLPIEVMVDAVHKLKYENYTSSFFIRDIIKPDPPKNLQLKPLKNSRQVEVSWEYPDTWSTPHSYFSLTFCVQVQGKSKREKKDRVFTDKTSATVICRKNASISVRAQDRYYSSSWSEWASVPCSGGGGSGGGSGGGGSRNLPVATPDPGMFPCLHHSQNLLRAVSNMLQKARQTLEFYPCTSEEIDHEDITKDKTSTVEACLPLELTKNESCLNSRETSFITNGSCLASRKTSFMMALCLSSIYEDLKMYQVEFKTMNAKLLMDPKRQIFLDQNMLAVIDELMQALNFNSETVPQKSSLEEPDFYKTKIKLCILLHAFRIRAVTIDRVMSYLNAS
chain 2: B1 chain 2
B3: IL-2(L18R/Q22E/R38D/K43E/E61R)/PD-L1(mut2)-Fc/IL-12(E59A/F60A) (Fc fusion)
chain 1: B2 chain 1
chain 2: B1 chain 2 with L243R, Q247E, T351Q
B4: Fab-IL-12(WT)-Fc-CD4 Ab (other)
heavy 1: QVQLQQSGPEVVKPGASVKMSCKASGYTFTSYVIHWVRQKPGQGLDWIGYINPYNDGTDYDEKFKGKATLTSDTSTSTAYMELSSLRSEDTAVYYCAREKDNYATGAWFAYWGQGTLVTVSSASTKGPSVFPLAPSSKSTSGGTAALGCLVKDYFPEPVTVSWNSGALTSGVHTFPAVLQSSGLYSLSSVVTVPSSSLGTQTYICNVNHKPSNTKVDKKVEPKSCDKPGSGIWELKKDVYVVELDWYPDAPGEMVVLTCDTPEEDGITWTLDQSSEVLGSGKTLTIQVKEFGDAGQYTCHKGGEVLSHSLLLLHKKEDGIWSTDILKDQKEPKNKTFLRCEAKNYSGRFTCWWLTTISTDLTFSVKSSRGSSDPQGVTCGAATLSAERVRGDNKEYEYSVECQEDSACPAAEESLPIEVMVDAVHKLKYENYTSSFFIRDIIKPDPPKNLQLKPLKNSRQVEVSWEYPDTWSTPHSYFSLTFCVQVQGKSKREKKDRVFTDKTSATVICRKNASISVRAQDRYYSSSWSEWASVPCSGGGGSGGGGSGGGGSGGGGSGRNLPVATPDPGMFPCLHHSQNLLRAVSNMLQKARQTLEFYPCTSEEIDHEDITKDKTSTVEACLPLELTKNESCLNSRETSFITNGSCLASRKTSFMMALCLSSIYEDLKMYQVEFKTMNAKLLMDPKRQIFLDQNMLAVIDELMQALNFNSETVPQKSSLEEPDFYKTKIKLCILLHAFRIRAVTIDRVMSYLNASDKTHTCPPCPAPEDEGGPSVFLFPPKPKDTLMISRTPEVTCVVVDVSHEDPEVKFNWYVDGVEVHNAKTKPREEQYNSTYRVVSVLTVLHQDWLNGKEYKCKVSNKALPAPIEKTISKAKGQPREPQVYVYPPSREEMTKNQVSLTCLVKGFYPSDIAVEWESNGQPENNYKTTPPVLDEDGSFALVSKLTVDKSRWQQGNVFSCSVMHEALHNHYTQKSLSLSPGK
heavy 2: QVQLQQSGPEVVKPGASVKMSCKASGYTFTSYVIHWVRQKPGQGLDWIGYINPYNDGTDYDEKFKGKATLTSDTSTSTAYMELSSLRSEDTAVYYCAREKDNYATGAWFAYWGQGTLVTVSSASTKGPSVFPLAPSSKSTSGGTAALGCLVKDYFPEPVTVSWNSGALTSGVHTFPAVLQSSGLYSLSSVVTVPSSSLGTQTYICNVNHKPSNTKVDKKVEPKSCDKTHTCPPCPAPEKKGGPSVFLFPPKPKDTLMISRTPEVTCVVVDVSHEDPEVKFNWYVDGVEVHNAKTKPREEQYNSTYRVVSVLTVLHQDWLNGKEYKCKVSNKALPAPIEKTISKAKGQPREPQVYVLPPSREEMTKNQVSLLCLVKGFYPSDIAVEWESNGQPENRYMTWPPVLDSDGSFFLYSKLTVDKSRWQQGNVFSCSVMHEALHNHYTQKSLSLSPGK
light: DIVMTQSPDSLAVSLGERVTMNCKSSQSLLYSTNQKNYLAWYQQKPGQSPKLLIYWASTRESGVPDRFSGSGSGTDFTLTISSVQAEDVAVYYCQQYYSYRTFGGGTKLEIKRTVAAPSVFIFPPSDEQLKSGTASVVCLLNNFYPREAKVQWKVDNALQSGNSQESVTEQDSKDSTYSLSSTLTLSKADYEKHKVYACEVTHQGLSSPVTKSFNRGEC
B5: Fab-IL-12(E59A/F60A)-Fc-CD4 Ab (other)
heavy 1: B4 heavy 1 with E290A, F291A
heavy 2: B4 heavy 2
light: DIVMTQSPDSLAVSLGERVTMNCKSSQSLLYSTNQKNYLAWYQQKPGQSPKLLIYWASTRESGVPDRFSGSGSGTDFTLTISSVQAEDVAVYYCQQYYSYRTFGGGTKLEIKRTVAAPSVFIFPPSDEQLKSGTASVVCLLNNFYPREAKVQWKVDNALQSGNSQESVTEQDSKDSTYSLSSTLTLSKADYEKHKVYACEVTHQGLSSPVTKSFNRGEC
B6: Fab-IL-12(E59A)-Fc-CD4 Ab (other)
heavy 1: B4 heavy 1 with E290A
heavy 2: B4 heavy 2
light: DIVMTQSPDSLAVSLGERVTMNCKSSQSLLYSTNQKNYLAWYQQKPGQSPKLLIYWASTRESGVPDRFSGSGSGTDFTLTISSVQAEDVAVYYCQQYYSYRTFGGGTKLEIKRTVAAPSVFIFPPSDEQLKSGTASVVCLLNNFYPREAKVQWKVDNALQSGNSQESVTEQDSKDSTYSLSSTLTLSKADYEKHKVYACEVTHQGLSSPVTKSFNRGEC

Molecular target: human PD-1 overexpressed on HEK-Blue reporter cells (human, UniProt Q15116 25-288)
Assay: cell-based or functional assay

Chain of human PD-1 overexpressed on HEK-Blue reporter cells (Q15116 25-288): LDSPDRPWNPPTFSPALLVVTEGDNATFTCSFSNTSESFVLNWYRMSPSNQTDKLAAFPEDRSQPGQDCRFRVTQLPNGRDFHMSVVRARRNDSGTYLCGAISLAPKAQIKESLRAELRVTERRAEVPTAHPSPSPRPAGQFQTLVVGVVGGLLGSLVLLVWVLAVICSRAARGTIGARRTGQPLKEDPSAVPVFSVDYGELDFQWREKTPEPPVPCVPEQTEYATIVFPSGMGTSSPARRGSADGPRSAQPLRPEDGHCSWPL

Binder | IL-2 signal transduction, % of rIL-2, HEK-IL-2-PD-1 cells | IL-12 signal transduction, % of rIL-12, HEK-IL-12-PD-1 cells
B1 | 20% | 25%
B2 | 31% | 30%
B3 | 32% | 27%

Molecular target: T1, human IL-12 receptor complex (human, UniProt P42701 24-662; Q99665 24-862)
Assay: cell-based or functional assay

T1 sequence (Q99665 24-862, chain 2 of 2, other chains not shown): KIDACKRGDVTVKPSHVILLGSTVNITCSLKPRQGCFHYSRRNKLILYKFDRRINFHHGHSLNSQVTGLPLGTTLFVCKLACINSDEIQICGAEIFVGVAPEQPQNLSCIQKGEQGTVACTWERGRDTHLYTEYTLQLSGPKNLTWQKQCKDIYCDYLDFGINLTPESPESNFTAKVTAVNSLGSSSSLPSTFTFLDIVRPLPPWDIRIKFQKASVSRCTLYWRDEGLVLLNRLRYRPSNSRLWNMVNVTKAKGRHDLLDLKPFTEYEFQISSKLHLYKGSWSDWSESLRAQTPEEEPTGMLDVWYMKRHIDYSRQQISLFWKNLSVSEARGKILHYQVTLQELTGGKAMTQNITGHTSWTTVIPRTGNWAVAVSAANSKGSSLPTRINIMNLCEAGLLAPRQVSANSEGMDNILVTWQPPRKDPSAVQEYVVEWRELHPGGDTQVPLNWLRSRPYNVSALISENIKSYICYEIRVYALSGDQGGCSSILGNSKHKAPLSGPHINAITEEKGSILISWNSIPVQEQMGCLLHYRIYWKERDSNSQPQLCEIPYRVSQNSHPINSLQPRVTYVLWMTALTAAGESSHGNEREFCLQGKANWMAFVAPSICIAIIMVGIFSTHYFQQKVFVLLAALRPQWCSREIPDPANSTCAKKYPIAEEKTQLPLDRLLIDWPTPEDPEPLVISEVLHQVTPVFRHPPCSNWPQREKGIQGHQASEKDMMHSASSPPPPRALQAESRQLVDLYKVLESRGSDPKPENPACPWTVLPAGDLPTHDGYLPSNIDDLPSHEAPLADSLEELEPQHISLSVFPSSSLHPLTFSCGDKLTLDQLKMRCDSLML

Binder | IL-12 signal transduction, % of rIL-12, HEK-IL-12 cells
B1 | < 0.2%
B2 | 1%
B3 | 2%

Molecular target: T2, human IL-2 receptor (human, UniProt P01589 22-272; P14784 27-551; P31785 23-369)
T2 sequence (looked up) 1: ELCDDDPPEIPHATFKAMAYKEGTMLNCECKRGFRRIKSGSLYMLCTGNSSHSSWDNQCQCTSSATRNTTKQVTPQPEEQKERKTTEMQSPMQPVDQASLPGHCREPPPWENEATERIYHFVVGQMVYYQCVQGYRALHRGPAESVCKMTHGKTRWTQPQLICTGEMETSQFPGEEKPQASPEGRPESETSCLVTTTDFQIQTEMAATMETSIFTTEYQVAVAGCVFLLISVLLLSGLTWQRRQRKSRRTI
T2 sequence (looked up) 2: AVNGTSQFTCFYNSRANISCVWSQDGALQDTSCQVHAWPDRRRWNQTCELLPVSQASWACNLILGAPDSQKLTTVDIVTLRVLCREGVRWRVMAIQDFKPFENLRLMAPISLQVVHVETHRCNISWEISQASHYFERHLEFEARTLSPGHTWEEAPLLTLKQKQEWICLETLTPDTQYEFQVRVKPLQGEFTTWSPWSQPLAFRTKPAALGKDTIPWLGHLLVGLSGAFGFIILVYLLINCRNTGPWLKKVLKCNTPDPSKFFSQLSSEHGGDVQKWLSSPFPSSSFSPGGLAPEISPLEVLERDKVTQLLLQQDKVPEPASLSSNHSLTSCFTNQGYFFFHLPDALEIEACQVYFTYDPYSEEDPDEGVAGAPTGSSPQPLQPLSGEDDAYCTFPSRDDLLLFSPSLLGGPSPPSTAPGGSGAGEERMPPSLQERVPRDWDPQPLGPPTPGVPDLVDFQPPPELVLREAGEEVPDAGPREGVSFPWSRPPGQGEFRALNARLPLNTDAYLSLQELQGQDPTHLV
T2 sequence (looked up) 3: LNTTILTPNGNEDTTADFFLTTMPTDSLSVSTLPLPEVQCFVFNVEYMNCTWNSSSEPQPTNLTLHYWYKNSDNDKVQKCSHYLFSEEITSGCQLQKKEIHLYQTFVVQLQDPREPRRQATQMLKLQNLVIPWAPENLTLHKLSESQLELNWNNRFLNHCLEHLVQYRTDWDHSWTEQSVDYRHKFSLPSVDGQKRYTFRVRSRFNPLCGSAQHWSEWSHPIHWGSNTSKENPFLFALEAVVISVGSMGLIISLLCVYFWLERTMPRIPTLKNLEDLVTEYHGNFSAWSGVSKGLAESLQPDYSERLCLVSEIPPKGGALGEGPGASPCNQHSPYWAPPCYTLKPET
Assay: cell-based or functional assay

Binder | IL-2 signal transduction, % of rIL-2, HEK-IL-2 cells
B1 | 2%
B2 | 3%
B3 | 3%

Molecular target: T1, human IL-12 receptor complex
Assay: cell-based or functional assay
Remark: another data set of the same source

Binder | IFN-γ release, % of rIL-12, activated CD8+ T cells
B4 | 25%
B5 | 0%
B6 | 1.1%

Molecular target: T3, CD8 on CD8+ T cells (human, UniProt P01732 22-235)
T3 construct: whole, on cells
Assay: FACS on CD8+ T cells

T3 sequence (P01732 22-235): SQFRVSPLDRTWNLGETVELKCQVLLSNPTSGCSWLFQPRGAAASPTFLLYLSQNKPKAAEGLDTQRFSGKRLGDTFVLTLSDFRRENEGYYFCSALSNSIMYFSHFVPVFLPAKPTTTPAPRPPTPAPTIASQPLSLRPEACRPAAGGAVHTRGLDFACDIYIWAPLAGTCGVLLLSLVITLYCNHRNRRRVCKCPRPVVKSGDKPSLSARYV

Binder | binding result
B4 | no binding
B5 | no binding
B6 | no binding
